Test results from the supplement of paper PMC9112550, “Optimization of the antimicrobial peptide Bac7 by deep mutational scanning” (BMC Biology, 2022).

Tested on: Escherichia coli TOP10
Assay: shrunken log2 fold change of peptide-encoding DNA abundance (4.5 h post-induction vs induction); higher = less antimicrobial activity (less host growth inhibition)
Details: time post-induction: 4.5 h; library: site-saturation at positions 5, 18, 19, 20
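Further: peptides expressed intracellularly from a pBAD plasmid library in pooled LB shake-flask culture, induced with 0.3% L-arabinose, DNA abundance read by NGS, three biological replicates, DESeq2 with apeglm shrinkage.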

Sequence | shrunken log2 fold change
RRIRLRPPRLPRPRPRPHMYPRP | -1.07
RRIRLRPPRLPRPRPRPHPIPRP | 0.0174
RRIRLRPPRLPRPRPRPHPMPRP | -0.173
RRIRLRPPRLPRPRPRPHPNPRP | -0.247
RRIRLRPPRLPRPRPRPHQEPRP | -0.00192
RRIRLRPPRLPRPRPRPHQMPRP | -0.199
RRIRLRPPRLPRPRPRPHQWPRP | -0.0297
RRIRLRPPRLPRPRPRPHSTPRP | -0.149
RRIRLRPPRLPRPRPRPHTSPRP | -0.112
RRIRLRPPRLPRPRPRPHVLPRP | -0.0737
RRIRLRPPRLPRPRPRPHWVPRP | -0.189
RRIRLRPPRLPRPRPRPHYAPRP | -0.133
RRIRLRPPRLPRPRPRPHYDPRP | -0.0502
RRIRLRPPRLPRPRPRPHYKPRP | -0.525
RRIRLRPPRLPRPRPRPHYYPRP | -0.438
RRIRLRPPRLPRPRPRPICDPRP | 0.0695
RRIRLRPPRLPRPRPRPICIPRP | -0.579
RRIRLRPPRLPRPRPRPIDTPRP | 0.115
RRIRLRPPRLPRPRPRPIESPRP | 0.033
RRIRLRPPRLPRPRPRPIFKPRP | -0.276

Sequence | shrunken log2 fold change
RRIRLRPPRLPRPRPRPIHYPRP | -0.186
RRIRLRPPRLPRPRPRPIISPRP | -0.513
RRIRLRPPRLPRPRPRPIKYPRP | 0.0258
RRIRLRPPRLPRPRPRPILCPRP | -0.152
RRIRLRPPRLPRPRPRPILKPRP | 0.0777
RRIRLRPPRLPRPRPRPIMPPRP | -0.459
RRIRLRPPRLPRPRPRPIPCPRP | -0.00241
RRIRLRPPRLPRPRPRPIPVPRP | -0.0985
RRIRLRPPRLPRPRPRPIQDPRP | -0.105
RRIRLRPPRLPRPRPRPIRGPRP | -0.0599
RRIRLRPPRLPRPRPRPITTPRP | -0.283
RRIRLRPPRLPRPRPRPITVPRP | -0.216
RRIRLRPPRLPRPRPRPIWYPRP | -0.645
RRIRLRPPRLPRPRPRPIYLPRP | -0.654
RRIRLRPPRLPRPRPRPIYNPRP | -0.989
RRIRLRPPRLPRPRPRPIYRPRP | -0.0597
RRIRLRPPRLPRPRPRPIYYPRP | -0.561
RRIRLRPPRLPRPRPRPKACPRP | 0.16
RRIRLRPPRLPRPRPRPKAGPRP | 0.221
RRIRLRPPRLPRPRPRPKAPPRP | 0.00522

Sequence | shrunken log2 fold change
RRIRLRPPRLPRPRPRPKAYPRP | -0.402
RRIRLRPPRLPRPRPRPKCAPRP | 0.0163
RRIRLRPPRLPRPRPRPKCGPRP | 0.338
RRIRLRPPRLPRPRPRPKDFPRP | 0.0642
RRIRLRPPRLPRPRPRPKDPPRP | -0.221
RRIRLRPPRLPRPRPRPKEAPRP | -0.011
RRIRLRPPRLPRPRPRPKFGPRP | 0.146
RRIRLRPPRLPRPRPRPKHIPRP | -0.241
RRIRLRPPRLPRPRPRPKHWPRP | 0.31
RRIRLRPPRLPRPRPRPKKIPRP | -0.104
RRIRLRPPRLPRPRPRPKKNPRP | 0.144
RRIRLRPPRLPRPRPRPKKPPRP | 0.0873
RRIRLRPPRLPRPRPRPKLVPRP | -0.0181
RRIRLRPPRLPRPRPRPKMQPRP | 0.282
RRIRLRPPRLPRPRPRPKMTPRP | -0.181
RRIRLRPPRLPRPRPRPKNAPRP | -0.238
RRIRLRPPRLPRPRPRPKPSPRP | 0.432
RRIRLRPPRLPRPRPRPKRVPRP | -0.116
RRIRLRPPRLPRPRPRPKSYPRP | -0.592
RRIRLRPPRLPRPRPRPKWIPRP | 0.137
